Data: patent US12018066 (TRIAD NATIONAL SECURITY, dated 2024)
Changes are numbered by the printed parent chain. Where “and” joins values, the source holds several entries; their conditions need not be identical. Identical values can stand only once.

B1: H01 scFv (scFv)
scFv: QPGLTQPPSVSLAPGQTARITCGGNNIGSKSVHWYQQKPGQAPVLVVYDDSDRPSGIPERFSGSNAGNTATLTISRVEAGDEADYYCQVWDSRSDQYVFGTRTKLTVLSGGSTITSYNVYYTKLSSSGAQVTLKESGPVLVKPTETLTLTCTVSGFSLSNARMGVSWIRQPPGKALEWLAHIFSNGEKSYSTSLKSRLTISKDTSKSQVVLTMTNMDPVDTATYYCARTLDYYDSSGYLVGGAFDIWGQGTMVTVSS
notes: also called H1
B2: H02 rabbit minibody (scFv-rabbit Fc) (Fc fusion)
scFv-Fc: QSVVTQPPSVSAAPGQKVTISCSGSSSNIGNNYVSWYQQLPGTAPKLLIYRDTQRPSGVPDRFSGSKSGTSASLAISGLRSEDEADYYCATWDKSLSGPVFGGGTKVTVLSGGSTITSYNVYYTKLSSSGTQVQLQQSGPGLVKPSQTLSLTCAISGDSVSSNSAAWNWIRQSPSRGLEWLGRTYYRSKWYNDYAVSVKSRIIINPDTSKNQFSLQLNSVTPEDTAVYYCARQDNNPYYGLDVWGQGTTVTVSS
B3: H05 rabbit minibody (scFv-rabbit Fc) (Fc fusion)
scFv-Fc: SYVLTQPPSVSVAPGQTARITCGANNIGRISVHWYQQKPGQAPVLVVYDDSDRPSGIPERFSGSNFGNTATLTISRVEAGDEADYYCQVWDSYSDHVIFGGGTKLTVLSGGSTITSYNVYYTKLSSSGTQVQLVQSGAEVKKPGSSVKVSCKASGGTFSSYAISWVRQAPGQGLEWMGGIIPIFGTANYAQKFQGRVTITADESTSTAYMELSSLRSEDTAVYYCARSIFGVVIISHADGYYYGMDVWGQGTTVTVSS
B4: D11 rabbit minibody (scFv-rabbit Fc) (Fc fusion)
scFv-Fc: SYELTQPPSVSVAPGQTARITCGGNNIGSKSVHWYQQKPGQAPVLVVYDDSDRPSGIPERFSGSNSGNTATLTISGTQAMDEADYYCQAWDSSTAYVFGSGTKLTVLSGGSTITSYNVYYTKLSSSGTQVQLEESGGGLVQPGGSLRLSCAASGFTFSNYAMSWVRQAPGKGLEWVSAISGSGGATFHADSVKGRFTISRDNSKNTLYLQMNSLRAEDTAVYYCARRVGYDSSGYYWSDAFDIWGQGTMVTVSS
B5: R26 rabbit minibody (scFv-rabbit Fc) (Fc fusion)
scFv-Fc: SYELTQPPSVSVAPGQTATITCGGKNIESKSVHWYQQKPGQAPVLVVSDDTDRASGIPERFSGSNSGGAATLTISRVEAGDEADYYCQVWDSPSDHYVFGPGTKLTVLSGGSTITSYNVYYTKLSSSGTQVQLVESGGGVVQPGRSLRLSCAASGFTFSSYAMHWVRQAPGKGLEWVAVISYDGSNKYYADSVKGRFTISRDKAKNTLYLQMNSLRGEDTAVYYCARELSYYDSSGYLRGDWYFDLWGRGTLVTVSS
B6: G07 rabbit minibody (scFv-rabbit Fc) (Fc fusion)
scFv-Fc: QSVLIQPPSASGTPGQRVTISCSGSNSNFGSNSVSWYQQRPGTAPKLLIEGNNQRPSGVPERFSGSKSGTSASLAISGLQSEDEAEYSCASWDDSLNAFVFGPGTKLTVLSGGSAITSYNVYYTKLSSSGTQVQLVQSGAEVKKPGESLKISCKGSGYSFTSYWIGWVRQMPGKGLEWMGIIYPGDSDIRYSPSFQGQVTISADKSFSSAYLQWSSLKASDTAMYYCARLGATGAFDIWGQGTTVTVSS
B7: H03 rabbit minibody (scFv-rabbit Fc) (Fc fusion)
scFv-Fc: SYELTQPPSVSVAPGQTARITCGGNNIGSKSVHWYQQKPGQAPVLVIYYDSDRPSGIPERFSGSNSGNTATLTISRVEAGDEADYYCQVWDSSSALYVFGTRTKVTVLSGGSTITSYNVYYTKLSSSGTQVQLVESGGGLVQPGRSLRLSCAASGFTFDDYAMHWVRQAPGKGLEWVSGISWNSGSIGYADSVKGRFTISRDNAKNSLYLQVNSLRAEDTAVYYCARELIVGTTSPQTDAFDIWGQGTMVTVSS
B8: D07 scFv (scFv)
scFv: B1 scFv with Q1S, P2Y, G3E, L12V, Q16E, I20M, S29T, S31G
B9: E01 scFv (scFv)
scFv: SYELTQPPSVSVAPGETARITCGGDNIGRRHVHWYQQKPGQAPVLVIYDDSDRPSGIPDRFSGSNSGNTATLTIGRVEAGDEADYYCQVWGSSNDPHVFGTGTKLTVLSGGSTITSNNVYYTKLSSSGTQVQLQQWGAGLLKPSETLSLKCAVYGGSFSGYYWGWIRQSTGKGLEWIGEINRSGSTNYNPSLKSRVTISVDTSKNQFSLKLSSVTAADTAVYYCARGGARYYYGSGSYRSTPRPYYFDYWGQGTLVTVSS
notes: also called E1
B10: F07 scFv (scFv)
scFv: SYVLTQPPSVSVAPGQTARITCGGNNIGSKSVHWYQQKPGQAPVLVVYDDSDRPSGIPERFSGSNSGNTATLIISRVEAGDEADYYCQVWDSSSVHYVFGTGTKLTVLSGGSTITSYNVYYTKLSSSGTQVQLVQSGAEVKKPGSSVRVSCKVSGYTFTGYYMHWVRQAPGQGLEWMGIINPSGGSTSYAQKFQGRVTMTRDTSTSTVYMELSSLRSEDTAVYYCARVRVGASDAFDIWGQGTMVTVSS
B11: E07 scFv (scFv)
scFv: B10 scFv
B12: R09 scFv (scFv)
scFv: QPGLTQPPSVSVSPGQTASITCSGDKLGYKYVSWYQQKPGQSPVLVIYEDTKRPSGIPKRFSGSNSGNTATLTICGTQAVDEADYYCQAWDSSVVFGGGTKLTVLSGGSTITSYNVYDTKLSSSGTQVQLVQSGAEVKKPGASVKVSCKASGYTFTSYGISWVRQAPGQGLEWMGWISAYNGNTNYAQKFQGRVTMTTDTSTSTAYMELRSLRSDDTAVYYCARDMELRPPFDYWGQGTLVTVSS
B13: B04 scFv (scFv)
scFv: SYVLTQPPSVSVAPGKTARITCGGNNIGIRSVHWYQQKPGQAPVLVIYYDSDRPSGIPERFSGSKSGNTATLTISRVEAGDEADYYCQVWDSSSDHPVFGGGTKLTVLSGGSTITSYNVYYTKLSSSGTQVQLVESGAEVKKPGASVKVSCKASGYTFTRYYMHWVRQAPGQGLEWMGIINPSGGTTSYAQKFQGRVTMTRDTSTSTVYMELSSLRSEDTAVYYCARSFGELTSFDYWGQGTLVTVSS
B14: D04 scFv (scFv)
scFv: SYVLTQPPSVSVAPGKTARITCGGNNIGWKSVHWYQQKPGQAPVLVVYNDNDRPSGVPERFSGSNSGNTATLTISRVVAGDEADYYCQVWDSSSDHVLFGGGTKLTVLSGGSTITSYNVYYTKLSSSGTQVQLVQSGAEVKKPGSSVKVSCKASGGTFSSYAISWVRQAPGQGLEWMGGIIPIFGTANYAQKFQGRVTITADESTSTAYMELSSLRSEDTAVYYCARASGRWLQFWHYYGMDVWGQGTTVTVS
B15: S01 rabbit minibody (scFv-rabbit Fc) (Fc fusion)
chain: EIVMTQSPSSLSASVGDSVTITCQASQDISNYLNWYQQKPGKAPKLLIYDASNLETGVPSRFSGGGSGTDFTLTITSLQPEDIATYYCQQYDNFPPTFGPGTKVDIKSGGSTITSYNVYYTKLSSSDTQVQLVESGGGLVKPGGSLRLSCAASGFTVGSNYMSWVRQAPGKGLEWVSVIYSGGSTYYADSVKGRFTISRDNSKNTLYLQMNSLRAEDTAVYYCARGSSGAWYFDLWGRGTLVTVSS
B16: S01 human minibody (scFv-human Fc) (Fc fusion)
chain: B15 chain
B17: E01 rabbit minibody (scFv-rabbit Fc) (Fc fusion)
scFv-Fc: B9 scFv
B18: F07 human minibody (scFv-human Fc) (Fc fusion)
chain: B10 scFv
B19: F07 rabbit minibody (scFv-rabbit Fc) (Fc fusion)
chain: B10 scFv

target: T1, SARS-CoV-2 spike protein receptor binding domain (RBD2) (SARS-CoV-2, UniProt P0DTC2 319-537); experiment: not given

Binder	Kd [µM]
B1	0.0664

target: T2, SARS-CoV spike protein receptor binding domain (RBD1) (SARS-CoV, UniProt P59594 306-527); experiment: ELISA, crude rabbit minibody

Binder	binding result
B2	no binding
B3	no binding
B4	no binding
B5	no binding
B6	no binding
B7	no binding

target: T1, SARS-CoV-2 spike protein receptor …; experiment: flow cytometry, yeast-expressed scFv

Binder	Kd [µM]
B8	0.268
B9	0.0161
B10	0.28
B11	0.436
B12	4.82

target: T1, SARS-CoV-2 spike protein receptor …; experiment: flow cytometry, yeast-displayed scFv

Binder	Kd [µM]
B13	0.0139
B1	0.0664
B9	0.0139
B10	0.0675

target: T1, SARS-CoV-2 spike protein receptor …; experiment: not given; remark: another data set of the same source

Binder	Kd [µM]
B9	0.0139
B10	0.0675

target: T1, SARS-CoV-2 spike protein receptor …; experiment: not given; remark: another data set of the same source

Binder	Kd
B13	0.0139 µM
B8	0.113 µM and 0.138 µM
B14	0.033 µM

target: T2, SARS-CoV spike protein receptor binding …; experiment: plate immunoassay on immobilized antigen, PE-labelled anti-rabbit/anti-human

Binder	binding result
B15	no binding
B16	no binding
B17	no binding
B18	no binding
B19	no binding

target: T1, SARS-CoV-2 spike protein receptor …; experiment: flow cytometry, yeast-displayed scFv, titration of biotinylated antigen

Binder	Kd [µM]
B13	0.0139
B8	0.113
B1	0.0664
B14	0.033
B9	0.0139
B10	0.0675
